Results published in publication PMC5042407, “Structural Details of Ufd1 Binding to p97 and Their Functional Implications in ER-Associated Degradation” (PLoS ONE, 2016).

Molecular target: T1, p97 N domain (21-196) (UniProt P55072 21-196)
T1 construct: p97 (VCP, valosin-containing protein), N-terminal domain, residues 21-196; The methods describe only the fusion proteins (pVFT3S vector, His6-thioredoxin cut off by TEV, E. coli Rosetta2 (DE3)); also called p97N^WT; N-terminal domain of p97; source: recombinant
T1 sequence (P55072 21-196): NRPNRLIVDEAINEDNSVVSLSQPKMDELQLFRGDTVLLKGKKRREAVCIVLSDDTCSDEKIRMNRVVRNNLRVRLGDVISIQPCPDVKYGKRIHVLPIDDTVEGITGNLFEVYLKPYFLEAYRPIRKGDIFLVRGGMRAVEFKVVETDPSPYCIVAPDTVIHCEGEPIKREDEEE
Assay: ITC; p97 N domain (2.0 mM) injected into the cell with Ufd1 SHP peptide (0.050 mM), 25°C, one-site binding model
Conditions: both partners purified

B1: Ufd1 SHP box peptide (225-235) (peptide)
peptide: FRAFSGSGNRL
notes: also called Ufd1SHP^WT; SHP box of Ufd1; source: synthetic peptide (Peptron, Korea)
Kd: 221 ± 36 µM
